Experimental data taken from paper PMC9719539, “Single-molecule characterization of subtype-specific β1 integrin mechanics” (Nature Communications, 2022).

What was measured:
[1] = biological target: integrin αVβ3, intact, on K562 αVβ3 stable transfectants (human) (UniProt P06756); assay: flow cytometry on cells; saturation binding of cRGDfK-TF5WS to K562 transfectants in L15 medium with 1% BSA and 1 mM Mn2+, no washing; background MFI measured with 10 mM EDTA and subtracted
[2] = biological target: integrin αVβ5, intact, on K562 αVβ5 stable transfectants (human) (UniProt P06756); assay: as above
[3] = biological target: integrin α5β1, intact, on wild type K562 cells (human (endogenous in K562)) (UniProt P08648); assay: flow cytometry on cells; saturation binding of cRGDfK-TF5WS to K562 cells in L15 with 2 µM 12G10 Fab, which stabilizes the EO state (intrinsic affinity for the EO state); no washing
Chain of integrin α5β1, intact, on wild type K562 cells (human (endogenous in K562)) (P08648 42-1049, chain 1 of 2): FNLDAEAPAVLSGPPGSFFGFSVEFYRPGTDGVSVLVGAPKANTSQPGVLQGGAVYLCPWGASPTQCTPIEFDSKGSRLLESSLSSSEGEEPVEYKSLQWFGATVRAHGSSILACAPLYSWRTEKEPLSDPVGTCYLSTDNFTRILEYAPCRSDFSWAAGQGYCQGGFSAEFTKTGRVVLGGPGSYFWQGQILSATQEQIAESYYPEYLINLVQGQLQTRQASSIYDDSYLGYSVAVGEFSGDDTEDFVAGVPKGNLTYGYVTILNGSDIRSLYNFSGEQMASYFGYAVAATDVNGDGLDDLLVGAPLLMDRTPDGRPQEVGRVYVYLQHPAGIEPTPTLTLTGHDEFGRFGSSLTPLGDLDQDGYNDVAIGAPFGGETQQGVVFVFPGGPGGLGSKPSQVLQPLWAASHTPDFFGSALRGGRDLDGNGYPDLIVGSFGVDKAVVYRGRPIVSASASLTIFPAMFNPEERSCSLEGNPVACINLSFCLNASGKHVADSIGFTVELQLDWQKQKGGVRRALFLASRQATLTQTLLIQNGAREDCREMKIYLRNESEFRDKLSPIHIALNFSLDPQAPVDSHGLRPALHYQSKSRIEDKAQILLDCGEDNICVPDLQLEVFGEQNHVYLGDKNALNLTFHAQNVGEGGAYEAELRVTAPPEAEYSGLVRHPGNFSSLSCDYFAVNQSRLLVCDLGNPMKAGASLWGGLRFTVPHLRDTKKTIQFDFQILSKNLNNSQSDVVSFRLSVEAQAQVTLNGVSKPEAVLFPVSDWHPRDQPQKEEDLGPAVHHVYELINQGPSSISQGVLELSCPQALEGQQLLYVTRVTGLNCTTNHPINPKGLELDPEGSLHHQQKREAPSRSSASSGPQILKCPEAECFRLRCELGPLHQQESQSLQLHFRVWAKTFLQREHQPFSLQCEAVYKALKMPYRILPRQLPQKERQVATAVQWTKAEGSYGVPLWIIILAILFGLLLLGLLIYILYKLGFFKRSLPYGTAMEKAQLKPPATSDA
Chain of integrin α5β1, intact, on wild type K562 cells (human (endogenous in K562)) (P05556 21-798, chain 2 of 2, further chain): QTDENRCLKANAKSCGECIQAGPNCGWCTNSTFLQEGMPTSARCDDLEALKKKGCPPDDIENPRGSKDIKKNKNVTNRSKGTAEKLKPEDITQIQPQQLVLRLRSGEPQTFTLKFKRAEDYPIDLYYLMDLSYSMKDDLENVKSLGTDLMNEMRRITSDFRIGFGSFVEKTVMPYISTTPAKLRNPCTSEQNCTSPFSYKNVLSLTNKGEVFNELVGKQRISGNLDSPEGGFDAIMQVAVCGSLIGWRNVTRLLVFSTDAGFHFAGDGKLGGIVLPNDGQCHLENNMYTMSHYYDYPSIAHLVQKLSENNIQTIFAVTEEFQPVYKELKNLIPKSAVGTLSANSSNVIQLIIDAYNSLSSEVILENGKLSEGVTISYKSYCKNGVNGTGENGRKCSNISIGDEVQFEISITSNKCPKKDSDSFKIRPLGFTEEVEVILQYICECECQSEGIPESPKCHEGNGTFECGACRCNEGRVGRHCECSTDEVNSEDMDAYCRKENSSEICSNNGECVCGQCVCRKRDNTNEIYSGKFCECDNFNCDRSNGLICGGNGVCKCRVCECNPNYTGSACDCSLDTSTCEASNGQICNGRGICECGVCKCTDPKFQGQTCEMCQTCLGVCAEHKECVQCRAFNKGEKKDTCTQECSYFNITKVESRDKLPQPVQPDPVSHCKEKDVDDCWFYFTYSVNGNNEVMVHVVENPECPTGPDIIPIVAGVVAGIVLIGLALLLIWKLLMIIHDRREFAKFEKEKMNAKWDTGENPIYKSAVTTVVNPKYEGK

Chain of integrin αVβ5, intact, on K562 αVβ5 stable transfectants (human) (P06756 31-1048, chain 1 of 2): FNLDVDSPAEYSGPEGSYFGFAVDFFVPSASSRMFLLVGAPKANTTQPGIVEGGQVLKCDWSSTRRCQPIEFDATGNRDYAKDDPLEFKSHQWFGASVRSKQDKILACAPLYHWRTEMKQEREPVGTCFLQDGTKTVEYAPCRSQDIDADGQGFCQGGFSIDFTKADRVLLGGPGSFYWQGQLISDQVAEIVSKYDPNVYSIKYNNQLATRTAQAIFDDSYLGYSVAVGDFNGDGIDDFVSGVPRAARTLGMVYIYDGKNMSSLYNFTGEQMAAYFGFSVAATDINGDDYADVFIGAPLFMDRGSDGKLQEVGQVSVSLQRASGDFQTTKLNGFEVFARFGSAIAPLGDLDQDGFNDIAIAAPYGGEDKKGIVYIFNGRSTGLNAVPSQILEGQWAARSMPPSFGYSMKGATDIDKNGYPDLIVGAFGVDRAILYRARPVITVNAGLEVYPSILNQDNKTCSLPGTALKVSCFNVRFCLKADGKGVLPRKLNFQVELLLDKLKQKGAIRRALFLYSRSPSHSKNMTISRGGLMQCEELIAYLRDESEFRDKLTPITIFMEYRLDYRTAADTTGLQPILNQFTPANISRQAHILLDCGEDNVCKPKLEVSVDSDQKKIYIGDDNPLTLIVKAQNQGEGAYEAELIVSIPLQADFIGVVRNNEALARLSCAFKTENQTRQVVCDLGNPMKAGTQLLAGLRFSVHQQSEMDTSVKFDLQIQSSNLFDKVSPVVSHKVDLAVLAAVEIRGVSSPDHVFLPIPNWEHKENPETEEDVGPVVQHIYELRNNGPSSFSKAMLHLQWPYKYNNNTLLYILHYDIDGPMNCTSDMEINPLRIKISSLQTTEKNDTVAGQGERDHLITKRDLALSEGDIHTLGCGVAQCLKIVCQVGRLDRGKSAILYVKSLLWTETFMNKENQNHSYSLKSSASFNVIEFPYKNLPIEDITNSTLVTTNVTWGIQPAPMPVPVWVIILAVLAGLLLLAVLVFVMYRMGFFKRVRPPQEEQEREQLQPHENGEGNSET
Chain of integrin αVβ5, intact, on K562 αVβ5 stable transfectants (human) (P18084 24-799, chain 2 of 2, further chain): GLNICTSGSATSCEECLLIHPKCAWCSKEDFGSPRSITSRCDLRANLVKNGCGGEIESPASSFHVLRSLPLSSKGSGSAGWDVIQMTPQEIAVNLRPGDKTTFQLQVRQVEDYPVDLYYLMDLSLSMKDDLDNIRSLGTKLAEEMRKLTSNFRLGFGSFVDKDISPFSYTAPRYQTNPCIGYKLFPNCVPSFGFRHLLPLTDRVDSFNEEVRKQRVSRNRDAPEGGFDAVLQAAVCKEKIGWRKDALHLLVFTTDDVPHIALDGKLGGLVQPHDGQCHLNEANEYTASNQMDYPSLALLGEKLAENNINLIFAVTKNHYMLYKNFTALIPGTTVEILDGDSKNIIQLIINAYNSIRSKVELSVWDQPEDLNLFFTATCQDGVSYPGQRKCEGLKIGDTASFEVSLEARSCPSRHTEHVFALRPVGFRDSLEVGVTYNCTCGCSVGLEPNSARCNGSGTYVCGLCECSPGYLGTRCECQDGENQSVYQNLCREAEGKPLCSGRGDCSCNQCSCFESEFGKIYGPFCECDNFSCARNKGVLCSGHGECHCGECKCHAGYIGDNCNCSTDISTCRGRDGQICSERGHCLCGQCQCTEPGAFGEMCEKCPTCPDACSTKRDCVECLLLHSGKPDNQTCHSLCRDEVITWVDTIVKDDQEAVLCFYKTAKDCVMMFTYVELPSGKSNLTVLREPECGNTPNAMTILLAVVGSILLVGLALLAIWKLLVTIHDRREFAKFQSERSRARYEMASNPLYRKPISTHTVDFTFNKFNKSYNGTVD
Chain of integrin αVβ3, intact, on K562 αVβ3 stable transfectants (human) (P06756 31-1048, chain 1 of 2): as the sequence (P06756 31-1048, chain 1 of 2) above
Chain of integrin αVβ3, intact, on K562 αVβ3 stable transfectants (human) (P05106 27-788, chain 2 of 2, further chain): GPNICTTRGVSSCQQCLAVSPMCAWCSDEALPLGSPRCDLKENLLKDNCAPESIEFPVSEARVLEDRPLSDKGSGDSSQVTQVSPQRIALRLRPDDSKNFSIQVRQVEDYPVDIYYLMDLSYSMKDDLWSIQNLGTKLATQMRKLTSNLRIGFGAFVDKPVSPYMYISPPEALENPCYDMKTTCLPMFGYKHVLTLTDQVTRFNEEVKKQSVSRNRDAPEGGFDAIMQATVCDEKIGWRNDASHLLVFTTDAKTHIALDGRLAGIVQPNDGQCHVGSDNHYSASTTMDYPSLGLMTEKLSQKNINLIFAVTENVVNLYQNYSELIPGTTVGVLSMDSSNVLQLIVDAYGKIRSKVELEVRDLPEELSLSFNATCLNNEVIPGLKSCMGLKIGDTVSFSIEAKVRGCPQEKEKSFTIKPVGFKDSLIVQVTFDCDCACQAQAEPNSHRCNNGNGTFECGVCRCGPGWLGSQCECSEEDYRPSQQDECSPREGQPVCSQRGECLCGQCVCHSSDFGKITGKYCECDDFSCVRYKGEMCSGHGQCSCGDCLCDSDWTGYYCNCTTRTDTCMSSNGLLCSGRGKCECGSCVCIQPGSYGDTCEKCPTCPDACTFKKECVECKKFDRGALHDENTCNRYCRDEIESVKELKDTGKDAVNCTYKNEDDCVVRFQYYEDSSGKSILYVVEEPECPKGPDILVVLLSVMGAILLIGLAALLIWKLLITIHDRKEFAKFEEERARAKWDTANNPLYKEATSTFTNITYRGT

Kd [1]: 28.3 nM | Kd [2]: 23.9 nM | Kd [3]: 86 nM
Substance: cRGDfK peptide with lysine side chain conjugated with TideFluor5WS
